Test results: the nanobody polyreactivity screen of Harvey et al. (2022)

assay: yeast display, Sf9 membrane polyspecificity reagent, FACS + sequencing; frameworks hold sequencing errors
In short: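 Sorting gates, low and high (top ~1%), were placed on anti-HA fluorescence to track expression and on streptavidin fluorescence to track reagent binding. A clone's polyreactivity label is taken from the gate it came out of. The reagent was 10% biotinylated, detergent-solubilized Sf9 membrane, applied for 1 hour at 4 °C to galactose-induced yeast display cells.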

Sequence | polyreactivity (PSR sort gate)
QVQLVESGGGLVQAGGSLLLSCAASGYTFGFYAMGWYTQAPGKERELVAAISASGGSTYYADSVKGRFTISRDNAKNTVYLQMNSVKPEETAVYYCAAVYSVYYHTWVTTRDYYYWGQGTQVTVSS | high polyreactivity
QVQLVESGGGLVQAGGSLLLSCAASGYTLEYNAMGWNRQAPGKEREFVARIRWSGSSTYYADSVKGRCTISRDNAKNTVYLQMNSLKPEDTAVYYCNADDGYYVGLSSAIYDYWGQGTQVTVSS | high polyreactivity
QVQLVESGGGLVQAGGSLLLSCAASRSISYAYAMGWYRQAHGKERELVAAISWSDGSTYYADSVKGRFTISRDNAKNTVYLQMNSLKPEDTAVYYCAADYGWHYGDWYDYWGQGTQVTVSS | low polyreactivity
QVQLVESGGGLVQAGGSLLLSCAAYGSISPYYTMGLYRQAPGKERELVAAICSGGRTYYADSVKGRFTISRDNAKNTVYLHMNSLNPEDTSVYYCAVEVAWYVHWGDMDYWGQGTQVTVSS | low polyreactivity
QVQLVESGGGLVQAGGSLLLSCGASGFIFYAYAMGWYRQAPVKDRELVAVMSSSGGSTYYADSVTGRFSISRAHAKTTVYLEWNSLKPDDTGGYYCAAETGTGETRYYRYWDYYYWGQGTQVTVSS | high polyreactivity
QVQLVESGGGLVQAGGSLLLTCAASGRIISLYAMGWYRQAPGKERELVAGISGGTIKYYADSLKGRFTISRDNAKNTVYLQMNSLKAEDTAVYYCAAKPTYRGYGYGSWGHGTQVTVSS | low polyreactivity
QVQLVESGGGLVQAGGSLPLSCAASGLTLYGNAMGWYRQAPAKEREMVADISLSGGRTFYADSVKGRFTITRDNAKNTVYLQMNSLKPEDTAVYYCAAVCRTGWYYEYYHWGQGSQVTVSS | low polyreactivity
QVQLVESGGGLVQAGGSLPLSCAASGRTYVSYVMGRYRQAPGKEREFVAAISRSGGNTYYADSVKGRFTISRDTAKNTVYLQMNSLNPEDTAVYYCYVLLQRVYGTAPSFDYWGQGTQVTVSS | high polyreactivity
QVQLVESGGGLVQAGGSLPLSCAASGSIFGINAMGWYRQAPGKERELVAAISSRGASTYYADSVKGRFTISRDNAKNTVYLQMNSLKPEDTAVYYCAADAFYWGQGTQVTVSS | low polyreactivity
QVQLVESGGGLVQAGGSLPLSCAASGSIFKTYAMGWYREAPGKERELVAAIRDSGDRTYYADSVKGRFTISRDNAKNTVYLQMNSLKPEDTAVYYCNARWQEALKYDYWGQGTQVTVSS | low polyreactivity
QVQLVESGGGLVQAGGSLPLSCAASGSIFMTYAIGWYRQAPGKERELVAAIRDSGDRTYYADSVKGRFTISRDNAKNTVYLQINSLKPEDTAVYYCNARWQEALKYDYWGQGTQVTVSS | low polyreactivity
QVQLVESGGGLVQAGGSLPLSCAASGSNLRRYDMGLYRQAPGKERELVAAISSSGGSTYYADSVKGRFTISRDNAKNTVYLQMNSLKPEDTAVYYCAADIYDDDRSEYTEYDYWGQGTHVTVSS | low polyreactivity
QVQLVESGGGLVQAGGSLPLSCAASGSTFDRNVMGWYRQAPGKERELVAAISRVSSTNYADSVKGRFTISRDNAKNTVNLQMNSLKPEDTAVYSCAADGAGSIMNYWGQGTQVTVSS | low polyreactivity
QVQLVESGGGLVQAGGSLPLSCAASGSTFLQYAMGWYRQAPGKERELVAAIRGRGDSTYYADSVNGRFTISRDNEMNTVYLQMNSLKPVDSAVYSCAARGQGSRGMYYWGQGTKVTVSS | low polyreactivity
QVQLVESGGGLVQAGGSLPLSSAASGRTFYPNAMGWYRQAPGNEREFVARISDSGGSTYYADSVKGRFTISRDNAKNTVYLQMNSLKPEDTAVYYCAADYGDPRVKEYDYWGQGTQVTVSS | low polyreactivity
QVQLVESGGGLVQAGGSLRESCAASGRIFYGNAMGCYRQAPVKERELVAAISSGTSTNYADSVKGRFTISRDNAKNTVYLEMNSLKPEDTGVYYCAAGSYSRYLYSLYFDFDYWGQGTQVTVSS | low polyreactivity

Sequence | polyreactivity (PSR sort gate)
QVQLVESGGGLVQAGGSLRFICAASGRIFRRYLMGWYRQAPGKERELVARFRIRDSNTYYADSVKGRFTISRDNAKNTVYLQMNSLKPEDTAVYNCAVVANYVYSKYDYWGQGTQVTVSS | high polyreactivity
QVQLVESGGGLVQAGGSLRFRCAASGRIFSYVMGWYRQAPGKERELVAAISTGGGNTYYADSVKGRFTISRDNAKNTVYLQMNSLKPEDTAVYYCAADYYAGTFDYWGQGTQVTVSS | high polyreactivity
QVQLVESGGGLVQAGGSLRFSCAASGFIFGDYAMGWDRQAPGTEREFVATISRSVGSRSYADSVKGRFTISRDNAKKPVYLQMNSLKPEDTAVYYCAAVTWGEGFDYWGQGTQVTVSA | low polyreactivity
QVQLVESGGGLVQAGGSLRFSCAASGFIFRYYAMGWYRQAPGKERELVAAIDYSGGSTIYADSVKGRFTISRDNAKNTVYLQMNSLKPEDTAVYYCNAEYTWHRGYDYWGQGTQVTVSS | low polyreactivity
QVQLVESGGGLVQAGGSLRFSCAASGFIFVRYAMGWYRQAPGKERELVAAISGSGGRTYYADSVKGRFTISRDNAKNTVYLQMTSLKPEDTAVYYCNGTSYTYGYLPYDYWGQGTQVTVSS | high polyreactivity
QVQLVESGGGLVQAGGSLRFSCAASGGFFHGNTMGWYRQAPGKERELVAAISNSGGSTYYADSVKGRFPISRDNAKNTVYLQMNSLKPEDTAVDSCARVGYKLYQYKYDYWGQGTQVTVSS | low polyreactivity
QVQLVESGGGLVQAGGSLRFSCAASGGNFGYYAMGWYRQAPGKERELVARISSSGGSTYYADSVKGRFTISRDNAKNTVYLQMNSLKPEDTAVYYCNTASNRYPGWRAEFDYWGQGTQVTVSS | low polyreactivity
QVQLVESGGGLVQAGGSLRFSCAASGGTFYVYAMGGYRQATGKERELVAAISTSGGSTYYADSVKGRFTISRDNAKNTVYLQMNSLKPEDTAVYYCAARRVSFSGHPRYGYWGQGTQVTVSS | high polyreactivity
QVQLVESGGGLVQAGGSLRFSCAASGITFKGYAMGWYRQAPGKERELVAAINSRGGTYADSVKGRFTISRDNAKNTVYLQMNSLKPEDTAVYYCAVTAVRPLPLDSGYDYWGQGTQVTVSS | low polyreactivity
QVQLVESGGGLVQAGGSLRFSCAASGLIFRGYTMGWYRQAPGKEREFVAAITRRGTSTYYADSVKGRFTISRDNAKNTVYLQINRLKPEDTAVYYCAARSVSGPRGYPYDYWGQGTQVTVSS | high polyreactivity
QVQLVESGGGLVQAGGSLRFSCAASGPIFYNNAMGGYRQAPGKERELHAAISYSGGRTYYADSVKGRFTISRDNAKNTVYLQMNSLKPEDTAVYYCATRYARTAYIRSEYWGQGTQVTVSS | high polyreactivity
QVQLVESGGGLVQAGGSLRFSCAASGRICVIYAIGWYRQAPGKERELVAVINDDGSTNYADSVKGRFTISRDNAKNTVYLQMNSLKPEDTAVYYCATDYVRHAGWRRYDYWGQGTQVTVSS | low polyreactivity
QVQLVESGGGLVQAGGSLRFSCAASGRIFTAYTMGWYRQAPGKERELVAAITRAGRTYYADSVKGRFTISRDNAKNTVYLQMNSLKPEDTAVYYCNTAPNYKYGYWGQGTQVTVSS | high polyreactivity
QVQLVESGGGLVQAGGSLRFSCAASGRILFSYGAMGLYRQAPGRERELDAATSYSGGSTYYADSVKGRFTISRDKAKKTVYLQMNSLKPEETAVYYCDPSSIVYRHYYWGQGTQVTLSS | high polyreactivity
QVQLVESGGGLVQAGGSLRFSCAASGRTFTVYAMGWYRQAPGKERELVAAINYSVGSTYYADSVKGRFTISRDNAKNTVYLQMNSLKPEDTAVYYCAADLYHFSYSYSYIRYDYWGQGTQVTVSS | low polyreactivity
QVQLVESGGGLVQAGGSLRFSCAASGRTFVWYTMGWYRQAPGKERELVAAISSGGSTSYADSVKGRFTISRDNAKNTVYLQMNSLKPEDTAVYYCNAVWYVRYSGMDYWGQGTQVTVSS | high polyreactivity
